Laboratory results reported in paper PMC11584650, “An inhibitory segment within G-patch activators tunes Prp43-ATPase activity during ribosome assembly” (Nature Communications, 2024).

Tests used:
[1] = target: His6-Prp43 (S. cerevisiae) (UniProt P53131)
[2] = target: His6-Prp43 (S. cerevisiae) (UniProt P53131); remark: listed apart in the source

Sequence of His6-Prp43 (S. cerevisiae) (P53131 whole entry): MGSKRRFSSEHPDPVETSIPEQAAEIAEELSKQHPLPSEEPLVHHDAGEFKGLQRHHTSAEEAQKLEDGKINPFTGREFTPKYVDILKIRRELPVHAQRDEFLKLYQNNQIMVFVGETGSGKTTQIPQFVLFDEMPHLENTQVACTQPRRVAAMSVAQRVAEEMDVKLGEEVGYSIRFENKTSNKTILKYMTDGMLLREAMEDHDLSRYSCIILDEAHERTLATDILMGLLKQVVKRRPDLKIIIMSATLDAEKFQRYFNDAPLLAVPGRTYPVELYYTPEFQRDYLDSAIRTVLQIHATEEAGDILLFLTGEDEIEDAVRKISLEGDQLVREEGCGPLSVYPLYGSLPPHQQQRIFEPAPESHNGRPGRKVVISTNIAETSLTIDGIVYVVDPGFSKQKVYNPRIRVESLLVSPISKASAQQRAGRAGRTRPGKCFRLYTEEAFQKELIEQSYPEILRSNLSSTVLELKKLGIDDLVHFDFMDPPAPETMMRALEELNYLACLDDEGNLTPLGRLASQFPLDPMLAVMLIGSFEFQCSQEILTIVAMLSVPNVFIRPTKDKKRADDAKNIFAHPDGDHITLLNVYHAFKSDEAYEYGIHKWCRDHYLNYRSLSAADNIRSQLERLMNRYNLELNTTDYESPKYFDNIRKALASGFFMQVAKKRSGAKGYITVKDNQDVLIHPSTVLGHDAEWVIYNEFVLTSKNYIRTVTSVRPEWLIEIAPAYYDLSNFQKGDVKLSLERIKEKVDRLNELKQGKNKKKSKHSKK

Row | stimulation of Prp43 ATPase activity by Tma23^G added at a 1:1 or 10:1 molar ratio (NADH-coupled assay, 2.5 mM ATP) [1] | ATPase activity of the Prp43-T^G fusion against Prp43 with an equimolar amount of Tma23^G [2] | ATPase activity of the Prp43-P^G fusion against Prp43 with an equimolar amount of Pxr1^G [2] | Substance
1 | 3 fold | 30 fold |  | GST-Tma23^G (domain or fragment)
2 |  |  | 2 fold | GST-Pxr1^G (domain or fragment)
